From the RNAGym collection of RNA variant scans (doi:10.7554/elife.80360) come the findings set out here.

B1: Twister Ribozyme (parent)
chain: AACACUGCCAAUGCCGGUCCCAAGCCCGGAUAAAAGUGGAGGGGGCGG

Variants of B1 are the subject of this series. In words: self-cleavage, relative activity (ratio to wild type); higher = more cleavage; co-transcriptional.
As for AACACUGCCCAUGCCGGUCCCAAGCCCGGAUAAAAGUGGAGGGCGCGG [A10C G44C], the self-cleavage was 0.867.
Consider AACACUGCCCAUGCCGGUCCCAAGCACGGAUAAAAGUGGAGGGGGCGG [A10C C26A], for which the self-cleavage amounted to 0.664.
Then AACACUGCCCAUGCCGGUCCCAAGCGCGGAUAAAAGUGGAGGGGGCGG [A10C C26G], with 0.175; and AACACUGCCGAUGCCGGUCCCAUGCCCGGAUAAAAGUGGAGGGGGCGG [A10G A23U], with 0.92; and AACACUGCCGAUGCCGGUCCCAAGCCCGGAUAAAAGUGGAGGGGGCGC [A10G G48C], with 1.2.
Then AACACUGCCCAUGCCGGUCCCAAGCCCGGAUAAAAGUGGAGGGGGCAG [A10C G47A], with 0.834.
As for AACACUGCCCAUGCCGGUCCCAAGCCCGGAUAAACGUGGAGGGGGCGG [A10C A35C], the self-cleavage worked out at 1.08.
Turning to AACACUGCCCAUGCCGGUCCCAAGCCCGGAUAAAUGUGGAGGGGGCGG [A10C A35U], the self-cleavage was 1.04.
Then AACACUGCCGAUGCCGGUCCCAAGCCCGAAUAAAAGUGGAGGGGGCGG [A10G G29A], with 1.09; and AACACUGCCGAUGCCGGUCCCAAGCCCUGAUAAAAGUGGAGGGGGCGG [A10G G28U], with 1.04.
AACACUGCCGAUGCCGGUCCCAAGCCCAGAUAAAAGUGGAGGGGGCGG [A10G G28A]: the self-cleavage amounted to 1.08.
Then AACACUGCCGAUGCUGGUCCCAAGCCCGGAUAAAAGUGGAGGGGGCGG [A10G C15U], with 0.902; and AACACUGCCCAUGCCGGUCCCAAGCCCGGAUAAAAGUGGCGGGGGCGG [A10C A40C], with 0.253; and AACACUGCCCAUGCCGGUCCCAAGCCCUGAUAAAAGUGGAGGGGGCGG [A10C G28U], with 0.811.
The same measure for AACACUGCCGCUGCCGGUCCCAAGCCCGGAUAAAAGUGGAGGGGGCGG [A10G A11C]: 0.801; for AACACUGCCGUUGCCGGUCCCAAGCCCGGAUAAAAGUGGAGGGGGCGG [A10G A11U]: 1.09; for AACACUGCCCAUGCCGGUCCCAAGCCCGGAUAAAAGUGGAGUGGGCGG [A10C G42U]: 0.26.
Then AACACUGCCCAUGCCGAUCCCAAGCCCGGAUAAAAGUGGAGGGGGCGG [A10C G17A], with 0.391; and AACACUGCCCAUGCCGCUCCCAAGCCCGGAUAAAAGUGGAGGGGGCGG [A10C G17C], with 0.125; and AACACUGCCCAUGCCGUUCCCAAGCCCGGAUAAAAGUGGAGGGGGCGG [A10C G17U], with 0.408.
Take AACACUGCCGAUGCCGUUCCCAAGCCCGGAUAAAAGUGGAGGGGGCGG [A10G G17U]: the self-cleavage stood at 0.388.
Then AACACUGCCCAUGCCGGUCCCAAGCCCGGAUAAAAAUGGAGGGGGCGG [A10C G36A], with 0.794; and AACACUGCCCAUGCCGGUCCCAAGCCCGGAUAAAAUUGGAGGGGGCGG [A10C G36U], with 0.722; and AACACUGCCCAUGCCGGUCCCAAUCCCGGAUAAAAGUGGAGGGGGCGG [A10C G24U], with 0.0955.
Then AACACUGCCCAUGCCGGUCCCAAACCCGGAUAAAAGUGGAGGGGGCGG [A10C G24A], with 0.0991; and AACACUGCCCAUGCCGGUCCUAAGCCCGGAUAAAAGUGGAGGGGGCGG [A10C C21U], with 0.122.
The same measure for AACACUGCCCAUGCCGGUCCAAAGCCCGGAUAAAAGUGGAGGGGGCGG [A10C C21A]: 0.124; for AACACUGCCGAUGCCGGUCCCAAGCCCGGAUAAAAGUGGAGGGGGUGG [A10G C46U]: 1.02.
As to AACACUGCCGAUGCCGGUCCCAAGCCCGGAUAAAAGUGGAGGGGGCUG [A10G G47U], the self-cleavage worked out at 1.01.
Then AACACUGCCCAUGACGGUCCCAAGCCCGGAUAAAAGUGGAGGGGGCGG [A10C C14A], with 1.05.
Consider AACACUGCCCAUACCGGUCCCAAGCCCGGAUAAAAGUGGAGGGGGCGG [A10C G13A], for which the self-cleavage amounted to 0.764.
As for AACACUGCCCAUCCCGGUCCCAAGCCCGGAUAAAAGUGGAGGGGGCGG [A10C G13C], the self-cleavage was 0.408.
Regarding AACACUGCCCAUGCCUGUCCCAAGCCCGGAUAAAAGUGGAGGGGGCGG [A10C G16U], the self-cleavage turned out to be 0.677.
The same measure for AACACUGCCCAUGCCGGUCCCAAGCCCGGAUAAAAGUGAAGGGGGCGG [A10C G39A]: 0.601.
Then AACACUGCCCAUGCCGGUCCCAAGCCCGGAUAAAAGUGCAGGGGGCGG [A10C G39C], with 0.172; and AACACUGCCGAUGCCGGUCCCAAGCCCGGAUAAAGGUGGAGGGGGCGG [A10G A35G], with 0.92.
The same measure for AACACUGCCGAUGCCGGUCCCAAGCCCGGAUAAAACUGGAGGGGGCGG [A10G G36C]: 0.855.
On to AACACUGCCGAUGCCGGUCCCAAGCCCGGAUAAAAUUGGAGGGGGCGG [A10G G36U], for which the self-cleavage was determined as 0.823.
On to AACACUGCCGAUGCCGGUCCCAAGCCCGGAUAAAAAUGGAGGGGGCGG [A10G G36A], for which the self-cleavage came to 0.786.
As for AACACUGCCCAUGCCGGUCCCAAGCCCGGAUAAAAGUGGAGGGGCCGG [A10C G45C], the self-cleavage was 0.661.
For the variant AACACUGCCCAUGCCGGUCCCAAGCCCGGAUAAAAGUGGAGGGGACGG [A10C G45A], the self-cleavage was determined as 0.881.
Consider AACACUGCCGAUGCCGGUCCCAAGCCCGGAUCAAAGUGGAGGGGGCGG [A10G A32C], for which the self-cleavage was 1.02.
The same measure for AACACUGCCGAUGCCGGUCCCAAGCCCGGAUAAGAGUGGAGGGGGCGG [A10G A34G]: 0.888; for AACACUGCCGAUGCCGGUCCCAAGCCCGGAUAAAAGUGGAGGGGUCGG [A10G G45U]: 0.883.
Then AACACUGCCGAUGCCGGUCCCAAGCCCGGAUAAAAGUGGAGGGGACGG [A10G G45A], with 1.13; and AACACUGCCCAUGCCGGUCCCAAGCCCGGUUAAAAGUGGAGGGGGCGG [A10C A30U], with 1.11; and AACACUGCCGAUGCCAGUCCCAAGCCCGGAUAAAAGUGGAGGGGGCGG [A10G G16A], with 1.13.
For AACACUGCCCAUGCCGGUCCCAAGCCCGGAUAAAAGUGGAGGGGGAGG [A10C C46A], the self-cleavage worked out at 0.898.
Then AACACUGCCCAUGCCGGUCCCAAGCCCGGAUAAAAGUGGAGGGGGUGG [A10C C46U], with 0.839; and AACACUGCCGAUGCCGGUCCCAAGCCCGGGUAAAAGUGGAGGGGGCGG [A10G A30G], with 0.897.
For the variant AACACUGCCCAUGCCGGGCCCAAGCCCGGAUAAAAGUGGAGGGGGCGG [A10C U18G], the self-cleavage came out at 0.0601.
Then AACACUGCCCAUGCCGGACCCAAGCCCGGAUAAAAGUGGAGGGGGCGG [A10C U18A], with 0.455; and AACACUGCCGAUGCCGGUCCCAAGACCGGAUAAAAGUGGAGGGGGCGG [A10G C25A], with 0.139; and AACACUGCCGAUGCCGGUCCCAAGUCCGGAUAAAAGUGGAGGGGGCGG [A10G C25U], with 0.874.
